Experimental data as given in paper PMC3590144, “Determination of the Structure of the Catabolic N-Succinylornithine Transaminase (AstC) from Escherichia coli” (PLoS ONE, 2013).

Columns and labels:
[1] = molecular target: the molecule itself; assay: crystal structure; apo-AstC without PLP; space group R32:h, 2 molecules in the asymmetric unit, 2.75 Å; grown in 1.4 M sodium malonate pH 7 at 20 °C; dimers formed by crystallographic symmetry
[2] = molecular target: the molecule itself; assay: dynamic light scattering; in solution; hydrodynamic radius mean value 4.5 nm, about 100 kDa; data not shown

B1: apo-AstC, N-succinylornithine transaminase from Escherichia coli, without PLP (enzyme, E. coli (BL21 DE3), UniProt P77581 1-406, looked up)
chain: MSQPITRENFDEWMIPVYAPAPFIPVRGEGSRLWDQQGKEYIDFAGGIAVNALGHAHPELREALNEQASKFWHTGNGYTNEPVLRLAKKLIDATFADRVFFCNSGAEANEAALKLARKFAHDRYGSHKSGIVAFKNAFHGRTLFTVSAGGQPAYSQDFAPLPADIRHAAYNDINSASALIDDSTCAVIVEPIQGEGGVVPASNAFLQGLRELCNRHNALLIFDEVQTGVGRTGELYAYMHYGVTPDLLTTAKALGGGFPVGALLATEECARVMTVGTHGTTYGGNPLASAVAGKVLELINTPEMLNGVKQRHDWFVERLNTINHRYGLFSEVRGLGLLIGCVLNADYAGQAKQISQEAAKAGVMVLIAGGNVVRFAPALNVSEEEVTTGLDRFAAACEHFVSRGSS
notes: AstC (acetyl/succinylornithine aminotransferase) of E. coli; native, untagged protein, no plasmid or clone used; electron density from Gln3 to Ser402, the last 4 residues (Arg-Gly-Ser-Ser) not modelled, which implies 406 residues; Endogenous protein of strain BL21 (DE3); also called apo-protein; apo-enzyme; source: endogenous, E. coli BL21 (DE3) grown in 2xYT, purified (Ni-NTA, size exclusion …)
[1]
  binding result: binds

B2: holo-AstC, N-succinylornithine transaminase from Escherichia coli reconstituted with PLP (enzyme, E. coli (BL21 DE3), UniProt P77581 1-406, looked up)
chain: B1 chain
modifications: PLP bound to Lys252 in a Schiff base (aldimine)
notes: AstC (acetyl/succinylornithine aminotransferase) of E. coli; native, untagged protein, no plasmid or clone used; the last 4 residues (Arg-Gly-Ser-Ser) after Ser402 not modelled, which implies 406 residues; Same polypeptide as m1, with the cofactor PLP added; Endogenous protein of strain BL21 (DE3); also called holo-enzyme; PLP/enzyme complex; source: endogenous, E. coli BL21 (DE3), purified …
[2]
  stoichiometry N: 2
